The target in data set [1] is RhamD from Gibberella zeae (Fusarium graminearum, UniProt D0VX14). Particulars: kinetic data not shown.
The target in data set [2] is T1, RhamD from Azotobacter vinlandii (Azotobacter vinelandii, UniProt C1DMY1).
T1 sequence (C1DMY1 1-394): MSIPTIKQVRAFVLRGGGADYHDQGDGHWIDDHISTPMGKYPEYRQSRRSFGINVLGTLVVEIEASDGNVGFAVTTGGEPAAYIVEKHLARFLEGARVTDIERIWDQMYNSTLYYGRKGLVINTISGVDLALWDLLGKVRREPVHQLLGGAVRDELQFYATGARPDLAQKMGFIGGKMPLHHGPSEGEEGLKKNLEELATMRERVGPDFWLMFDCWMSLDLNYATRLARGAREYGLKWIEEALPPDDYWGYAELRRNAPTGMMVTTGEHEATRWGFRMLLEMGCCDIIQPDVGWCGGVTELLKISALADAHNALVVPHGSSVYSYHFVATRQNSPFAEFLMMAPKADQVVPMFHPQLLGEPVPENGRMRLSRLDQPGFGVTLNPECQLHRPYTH
Kind of data set: dehydration activity. To be noted: kinetic data not shown. It counts as biochemical.

Substrate in data set [3]: O=C(O)[C@H](O)[C@H](O)[C@@H](O)[C@@H](O)CO
Kind of data set: dehydration. It counts as biochemical, Escherichia coli. Particulars: 5 mM MgCl2, Tris-HCl pH 7.9 or K-Hepes pH 7.5, 25 °C.

Substrate in data set [4]: C[C@H](O)[C@H](O)[C@@H](O)[C@@H](O)C(=O)O
Kind of data set: dehydration. It counts as biochemical, Escherichia coli. To be noted: 5 mM MgCl2, Tris-HCl pH 7.9 or K-Hepes pH 7.5, 25 °C.

Substrate in data set [5]: O=C(O)[C@H](O)[C@H](O)[C@@H](O)CO
Kind of data set: dehydration. It counts as biochemical, Escherichia coli. Particulars: 5 mM MgCl2, Tris-HCl pH 7.9 or K-Hepes pH 7.5, 25 °C.

Data set [6] deals with the molecule itself. Kind of data set: crystal structure.
Substrate in data set [7]: O=C(O)[C@H](O)[C@H](O)[C@@H](O)[C@@H](O)CO
Kind of data set: dehydration. It is filed as biochemical, Salmonella enterica. To be noted: 5 mM MgCl2, Tris-HCl pH 7.9 or K-Hepes pH 7.5, 25 °C.

Substrate in data set [8]: C[C@H](O)[C@H](O)[C@@H](O)[C@@H](O)C(=O)O
The data set is described as follows: dehydration. It is filed as biochemical, Salmonella enterica. Particulars: 5 mM MgCl2, Tris-HCl pH 7.9 or K-Hepes pH 7.5, 25 °C.

Substrate in data set [9]: O=C(O)[C@H](O)[C@H](O)[C@@H](O)CO
Kind of data set: dehydration. To be noted: 5 mM MgCl2, Tris-HCl pH 7.9 or K-Hepes pH 7.5, 25 °C. It is filed as biochemical, Salmonella enterica.

Data set [10] concerns the molecule itself. The data set is described as follows: crystal structure. The source holds these as a separate data set.

Read-outs that look alike come from different tables or passages of the source.

RhamD from Gibberella zeae, sequence (D0VX14 1-450): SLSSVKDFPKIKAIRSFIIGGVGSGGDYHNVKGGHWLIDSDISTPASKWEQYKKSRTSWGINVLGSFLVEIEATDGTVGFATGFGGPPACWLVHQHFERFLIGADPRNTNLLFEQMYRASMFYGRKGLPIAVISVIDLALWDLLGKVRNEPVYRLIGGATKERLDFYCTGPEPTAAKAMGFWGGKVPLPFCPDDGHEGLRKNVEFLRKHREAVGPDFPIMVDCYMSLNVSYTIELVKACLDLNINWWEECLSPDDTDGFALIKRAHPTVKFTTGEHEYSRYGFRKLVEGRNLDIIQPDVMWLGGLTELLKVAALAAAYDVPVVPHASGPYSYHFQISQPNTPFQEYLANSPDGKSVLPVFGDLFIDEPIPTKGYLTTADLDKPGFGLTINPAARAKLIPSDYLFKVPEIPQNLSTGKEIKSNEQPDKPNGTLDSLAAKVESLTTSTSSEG

Take `C[C@H](O)[C@H](O)[C@@H](O)[C@@H](O)C(=O)O` [L-rhamnonate]: the dehydration activity entry in data set [1] and in data set [2] was “Each of these homologues catalyzes the RhamD reaction” each time.

B1: L-rhamnonate dehydratase (RhamD) from Escherichia coli K-12 (enzyme, E. coli K-12)
chain: MTLPKIKQVRAWFTGGATAEKGAGGGDYHDQGANHWIDDHIATPMSKYRDYEQSRQSFGINVLGTLVVEVEAENGQTGFAVSTAGEMGCFIVEKHLNRFIEGKCVSDIKLIHDQMLSATLYYSGSGGLVMNTISCVDLALWDLFGKVVGLPVYKLLGGAVRDEIQFYATGARPDLAKEMGFIGGKMPTHWGPHDGDAGIRKDAAMVADMREKCGEDFWLMLDCWMSQDVNYATKLAHACAPYNLKWIEECLPPQQYESYRELKRNAPVGMMVTSGEHHGTLQSFRTLSETGIDIMQPDVGWCGGLTTLVEIAAIAKSRGQLVVPHGSSVYSHHAVITFTNTPFSEFLMTSPDCSTMRPQFDPILLNEPVPVNGRIHKSVLDKPGFGVELNRDCNLKRPYSH
By Km is commonly meant the substrate concentration at which the rate is half of its maximum. By kcat is commonly meant the maximal rate divided by the concentration of active sites. Broadly, the kcat/Km is the second-order rate constant that governs catalysis at low substrate concentration. As a reminder, the stoichiometry N is a count of units in the complex or per binding partner. Turning to B1, in the data set “dehydration [3]”, the Michaelis constant (Km) came to 150 ± 60 µM, the turnover number (kcat) came to 0.2 ± 0.1 s⁻¹ and the catalytic efficiency (kcat/Km) was determined as 1300 M⁻¹ s⁻¹. Further, in “dehydration [4]”, the Michaelis constant (Km) came out at 150 ± 70 µM, the turnover number (kcat) turned out to be 3.2 ± 0.2 s⁻¹ and the catalytic efficiency (kcat/Km) was determined as 21000 M⁻¹ s⁻¹. For the same molecule, in “dehydration [5]”, the Km worked out at 2000 ± 300 µM, the kcat was determined as 0.6 ± 0.03 s⁻¹ and the specificity constant (kcat/Km) stood at 300 M⁻¹ s⁻¹. The “stoichiometry N” value in “crystal structure [6]” was found to be 8.

B2: YfaW / ecRhamD (RhamD from E. coli K-12) (Escherichia coli K-12; H325N) (protein)
chain: MTLPKIKQVRAWFTGGATAEKGAGGGDYHDQGANHWIDDHIATPMSKYRDYEQSRQSFGINVLGTLVVEVEAENGQTGFAVSTAGEMGCFIVEKHLNRFIEGKCVSDIKLIHDQMLSATLYYSGSGGLVMNTISCVDLALWDLFGKVVGLPVYKLLGGAVRDEIQFYATGARPDLAKEMGFIGGKMPTHWGPHDGDAGIRKDAAMVADMREKCGEDFWLMLDCWMSQDVNYATKLAHACAPYNLKWIEECLPPQQYESYRELKRNAPVGMMVTSGEHHGTLQSFRTLSETGIDIMQPDVGWCGGLTTLVEIAAIAKSRGQLVVPNGSSVYSHHAVITFTNTPFSEFLMTSPDCSTMRPQFDPILLNEPVPVNGRIHKSVLDKPGFGVELNRDCNLKRPYSH
Regarding B2, in the data set “dehydration [4]”, the Km worked out at 300 ± 30 µM, the catalytic constant (kcat) is 0.0005 ± 0.0001 s⁻¹ and the catalytic efficiency (kcat/Km) stood at 1.6 M⁻¹ s⁻¹.

B3: YfaW / ecRhamD (RhamD from E. coli K-12) (Escherichia coli K-12; H277N) (protein)
chain: MTLPKIKQVRAWFTGGATAEKGAGGGDYHDQGANHWIDDHIATPMSKYRDYEQSRQSFGINVLGTLVVEVEAENGQTGFAVSTAGEMGCFIVEKHLNRFIEGKCVSDIKLIHDQMLSATLYYSGSGGLVMNTISCVDLALWDLFGKVVGLPVYKLLGGAVRDEIQFYATGARPDLAKEMGFIGGKMPTHWGPHDGDAGIRKDAAMVADMREKCGEDFWLMLDCWMSQDVNYATKLAHACAPYNLKWIEECLPPQQYESYRELKRNAPVGMMVTSGENHGTLQSFRTLSETGIDIMQPDVGWCGGLTTLVEIAAIAKSRGQLVVPHGSSVYSHHAVITFTNTPFSEFLMTSPDCSTMRPQFDPILLNEPVPVNGRIHKSVLDKPGFGVELNRDCNLKRPYSH
For B3, in the data set “dehydration [4]”, the Km came to 8800 ± 900 µM, the kcat turned out to be 0.09 ± 0.01 s⁻¹ and the kcat/Km was 10 M⁻¹ s⁻¹.

B4: stRhamD (RhamD from S. typhimurium LT2) (Salmonella enterica subsp. enterica serovar Typhimurium str. LT2) (protein)
chain: MENIMTLPKIKHVRAWFIGGATAEKGAGGGDYHDQGGNHWIDDHIATPMSKYRDYEQSRQSFGINVLGTLIVEVEAENRQTGFAVSTAGEMGCFIVEKHLNRFIEGKCVSDIKLIHDQMLGATMYYSGSGGLVMNTISCVDLALWDLFGKVVGLPVYKLLGGAVRDEIQFYATGARPDLAKEMGFIGGKMPTHWGPHDGDAGIRKDAAMVADMREKCGPDFWLMLDCWMSQDVNYATKLAHACAPFNLKWIEECLPPQQYEGYRELKRNAPAGMMVTSGEHHGTLQSFRTLAETGIDIMQPDVGWCGGLTTLVEIAALAKSRGQLVVPHGSSVYSHHAVITFTNTPFSEFLMTSPDCSTLRPQFDPILLDEPVPVNGRIHKSVLDKPGFGVELNRDCHLKRPYSH
For B4, in “dehydration [7]”, the Michaelis constant (Km) came out at 60 ± 40 µM, the catalytic constant (kcat) amounted to 0.1 ± 0.06 s⁻¹ and the kcat/Km turned out to be 1700 M⁻¹ s⁻¹. Also, in the data set “dehydration [8]”, the Km is 250 ± 80 µM, the turnover number (kcat) turned out to be 3.9 ± 1.6 s⁻¹ and the kcat/Km is 16000 M⁻¹ s⁻¹. For the same molecule, in the data set “dehydration [9]”, the Michaelis constant (Km) is 1600 ± 1200 µM, the turnover number (kcat) came out at 0.05 ± 0.03 s⁻¹ and the kcat/Km is 30 M⁻¹ s⁻¹.

B5: L-rhamnonate dehydratase (RhamD) from Salmonella typhimurium LT2 (enzyme)
chain: ENIMTLPKIKHVRAWFIGGATAEKGAGGGDYHDQGGNHWIDDHIATPMSKYRDYEQSRQSFGINVLGTLIVEVEAENRQTGFAVSTAGEMGCFIVEKHLNRFIEGKCVSDIKLIHDQMLGATMYYSGSGGLVMNTISCVDLALWDLFGKVVGLPVYKLLGGAVRDEIQFYATGARPDLAKEMGFIGGKMPTHWGPHDGDAGIRKDAAMVADMREKCGPDFWLMLDCWMSQDVNYATKLAHACAPFNLKWIEECLPPQQYEGYRELKRNAPAGMMVTSGEHHGTLQSFRTLAETGIDIMQPDVGWCGGLTTLVEIAALAKSRGQLVVPHGSSVYSHHAVITFTNTPFSEFLMTSPDCSTLRPQFDPILLDEPVPVNGRIHKSVLDKPGFGVELNRDCHLKRPYSH
Turning to B5, in “crystal structure [10]”, the “stoichiometry N” value was determined as 8.
